{"source": "patent US6602854B1", "about": "“Branched multimeric Apo A-I agonist compounds” (priority 1997, dated 2003)", "key": {"LDL": {"system": "LDL", "experimental": "The association of peptide 4 (SEQ ID NO:4) with human lipoprotein fractions was determined by incubating ^14C-labeled peptide 4 (SEQ ID NO:4) with each lipoprotein class (HDL, LDL and VLDL) and a mixture of the different lipoprotein classes.\nHDL, LDL and VLDL were isolated by KBr density gradient ultracentrifugation at d=1.21 g/ml and purified by FPLC on a Superose 6B column size exclusion column (chromatography was carried out with a flow rate of 0.7 ml/min. and a running buffer of 10 mM Tris (pH 8), 115 mM NaCl, 2 mM EDTA and 0.01% NaN3). ^14C-labeled peptide 4 was incubated with HDL, LDL and VLDL at a peptide:phospholipid ratio of 1:5 (mass ratio) for 2 h at 37° C. The required amount of lipoprotein (volumes based on amount needed to yield 1000 μg) was mixed with 0.2 ml of peptide stock solution (1 mg/ml) and the solution was brought up to 2.2 ml using 0.9% of NaCl according to TABLE XIII:\nAfter incubating for 2 hr. at 37° C., an aliquot (0.1 ml) was removed for liquid scintillation counting to determine the total radioactivity, the density of the remaining incubation mixture was adjusted to 1.21 g/ml with KBr, and the samples centrifuged at 100,000 rpm (300,000 g) for 24 hours at 4° C. in a TLA 100.3 rotor using a Beckman tabletop ultracentrifuge. The resulting supernatant was fractionated by removing 0.3 ml aliquots from the top of each sample for a total of 5 fractions, and 0.05 ml of each fraction was used for liquid scintillation counting. The top two fractions contain the floating lipoproteins, the other fractions (3-5) correspond to proteins/peptides in solution."}, "HepG2 hepatoma cells": {"system": "HepG2 hepatoma cells", "test": "Cholesterol efflux", "assay_type": "cell-based", "conditions": "peptide:DMPC complexes 1:2 (w:w), 1-25 μg/ml, 24 hours; compared with native human ApoA-I", "experimental": "HepG2 hepatoma cells were plated into 6-well culture dishes and grown to confluence. Cells were labeled with ^3H-cholesterol by drying the cholesterol, then adding 1% bovine serum albumin (BSA) in phosphate buffered saline (PBS), sonicating the solution, and adding 0.2 ml labeling solution and 1.8 ml growth medium to the cells, so that each well contained 2 μCi of radioactivity. Cells were incubated for 24 h with the labeling medium.\nPeptide (or protein):DMPC complexes were prepared at a 1:2 peptide (or protein):DMPC ratio (w:w). […] Peptide or protein concentration in the final solution was 1 mg/ml.\nLabeling media was removed from the cells and the cells were washed with PBS prior to addition of complexes. 1.6 ml of growth medium was added to each well, followed by peptide (or protein): DMPC complex and sufficient PBS to bring the final volume to 2 ml per well. The final peptide or ApoA-I concentrations were 1, 2.5, 5, 7.5 and 25 μg/ml medium. After 24 hours of incubation at 37° C., the medium was removed, and the cells washed with 2 ml of 1% BSA/PBS, followed by 2 washes with 2 ml each of PBS. The amount of ^3H-cholesterol effluxed into the medium was determined by liquid scintillation counting."}, "[1]": {"test": "HDL cholesterol in rabbits after injection of phospholipid/peptide complexes", "assay_type": "in vivo, Male New Zealand White rabbits", "set-up": "HDL Cholesterol: unit not given here", "experimental": "Small discoidal particles consisting of phospholipid (DPPC) and peptide were prepared following the cholate dialysis method. The phospholipid was dissolved in chloroform and dried under a stream of nitrogen. The peptide was dissolved in buffer (saline) at a concentration of 1-2 mg/ml. The lipid film was redissolved in buffer containing cholate (43° C.) and the peptide solution was added at a 3:1 phospholipid/peptide weight ratio. The mixture was incubated overnight at 43° C. and then dialyzed at 43° C. (24 hr.), room temperature (24 hr.) and 4° C. (24 hr.), with three changes of buffer (large volumes) at temperature point. The complexes were filter sterilized (0.22 μm) for injection and storage at 4° C.\nMale New Zealand White rabbits (2.5-3 kg) were injected intravenously with a dose of phospholipid/peptide complex (5 or 10 mg/kg bodyweight, expressed as peptide) in a single bolus injection not exceeding 10-15 ml. The animals were slightly sedated before the manipulations. Blood samples (collected on EDTA) were taken before and 5, 15, 30, 60, 240 and 1440 minutes after injection. The hematocrit (Hct) was determined for each sample. Samples were aliquoted and stored at −20° C. before analysis.\nPlasma Lipids. The total plasma cholesterol, plasma triglycerides and plasma phospholipids were determined enzymatically using commercially available assays according to the manufacturer's protocols (Boehringer Mannheim, Mannheim, Germany and Biomerieux, 69280, Marcy-L'étoile, France).\nLipoprotein Profiles. The plasma lipoprotein profiles of the fractions obtained after the separation of the plasma into its lipoprotein fractions were determined by spinning in a sucrose density gradient. The fractions were collected and in each individual fraction the phospholipid and cholesterol content was measured enzymatically."}, "[2]": {"test": "Pharmacokinetics in mice (radiolabeled peptide, intraperitoneal)", "assay_type": "in vivo", "conditions": "for HALF-LIFE: 2.5 mg/kg intraperitoneal", "experimental": "In each experiment, 2.5 mg/kg radiolabeled peptide was injected intraperitoneally into mice which were fed normal mouse chow or the atherogenic Thomas-Harcroft modified diet (resulting in severely elevated VLDL and IDL cholesterol). Blood samples were taken at multiple time intervals for assessment of radioactivity in plasma."}}, "data": [{"sequence": "PVLDLFRELLNELLEALKQKLK [peptide 4]", "values": [{"measurement": "Recovery", "setting": "LDL; LDL/Peptide", "result": 89, "unit": "%"}, {"measurement": "radioactivity Total", "setting": "LDL; LDL/Peptide", "result": 89330}, {"measurement": "radioactivity Total before centrifugation", "setting": "LDL; LDL/Peptide", "result": 100452}, {"measurement": "radioactivity in Fraction 1", "setting": "LDL; LDL/Peptide", "result": 43740}, {"measurement": "radioactivity in Fraction 2", "setting": "LDL; LDL/Peptide", "result": 15140}, {"measurement": "radioactivity in Fraction 3", "setting": "LDL; LDL/Peptide", "result": 11880}, {"measurement": "radioactivity in Fraction 4", "setting": "LDL; LDL/Peptide", "result": 10860}, {"measurement": "radioactivity in Fraction 5", "setting": "LDL; LDL/Peptide", "result": 7710}, {"measurement": "share of total radioactivity in fractions 1 and 2 (associated with lipoprotein)", "setting": "LDL; incubation with isolated LDL", "result": 66, "unit": "%"}, {"measurement": "cholesterol efflux (in words)", "setting": "HepG2 hepatoma cells", "result": "more efficient at cholesterol efflux than ApoA-I"}, {"measurement": "HDL Cholesterol", "setting": "[1]; 10 mg/kg i.v. as peptide/DPPC complexes, 15 min.", "result": 428}, {"measurement": "HDL Cholesterol", "setting": "[1]; 10 mg/kg i.v. as peptide/DPPC complexes, time not printed (row between 0 and 15 min.)", "result": 408}, {"measurement": "Increase in HDL Cholesterol", "setting": "[1]; 10 mg/kg, 15 min.", "result": 31.3, "unit": "%"}, {"measurement": "HDL Cholesterol", "setting": "[1]; 10 mg/kg, 60 min.", "result": 387}, {"measurement": "Increase in HDL Cholesterol", "setting": "[1]; 10 mg/kg, 60 min.", "result": 18.9, "unit": "%"}, {"measurement": "HDL Cholesterol", "setting": "[1]; 10 mg/kg, 240 min.", "result": 291}, {"measurement": "Increase in HDL Cholesterol", "setting": "[1]; 10 mg/kg, 240 min.", "result": "−10.7", "unit": "%"}, {"measurement": "HDL Cholesterol", "setting": "[1]; 10 mg/kg, 1440 min.", "result": 347}, {"measurement": "Increase in HDL Cholesterol", "setting": "[1]; 10 mg/kg, 1440 min.", "result": 6.6, "unit": "%"}, {"measurement": "duration of the increase in cholesterol of the HDL fractions", "setting": "[1]; 10 mg/kg, apparent at 5 min. following injection", "result": "approximately 1 hr"}, {"measurement": "Increase in HDL Cholesterol", "setting": "[1]; 10 mg/kg, time not printed (row between 0 and 15 min.)", "result": 25.2, "unit": "%"}, {"measurement": "maximum serum concentration reached", "setting": "[2]; ApoE knockout mice", "result": "^5The maximum serum concentration reached was 17.4% injected % injected cpm"}, {"measurement": "time of maximum serum concentration following injection", "setting": "[2]; ApoE knockout mice", "result": "cpm at 1.46 hours following injection. r^2 = 0.973."}, {"measurement": "HALF-LIFE", "setting": "[2]; ApoE knockout mice", "result": "14.2^5 hours"}, {"measurement": "maximum serum concentration reached", "setting": "[2]; C57BL/6 mice, normal diet", "result": "^1The maximum serum concentration reached was 25.7% injected % injected cpm"}, {"measurement": "time of maximum serum concentration following injection", "setting": "[2]; C57BL/6 mice, normal diet", "result": "cpm at 1.9 hours following injection. r^2 = 0.960."}, {"measurement": "HALF-LIFE", "setting": "[2]; C57BL/6 mice, normal diet", "result": "5.72^1 hours"}, {"measurement": "time of maximum serum concentration following injection", "setting": "[2]; C57Bl/6 mice, high fat diet", "result": "cpm at 2.98 hours following injection. r^2 = 0.973."}, {"measurement": "HALF-LIFE", "setting": "[2]; C57Bl/6 mice, high fat diet", "result": "5.98^2 hours"}, {"measurement": "association with plasma components in mice (in words)", "setting": "[2]; mice, intraperitoneal", "result": "associated with the HDL component"}, {"measurement": "time the peptide remained stable in the circulation", "setting": "[2]; mice, intraperitoneal", "result": "at least 6 hours"}]}]}
